Test results published in US10940182B2, “Use of modified vasoactive intestinal peptides in the treatment of hypertension” (PhaseBio Pharmaceuticals, Inc., priority 2011, dated 2021).

Legend:
[1] = system: conscious spontaneously hypertensive rats (SHR); test: Telemetric blood pressure and heart rate in conscious SHR, single SQ dose, with and without atenolol (Example 7); format: in vivo, rat; details: for heart rate: +2 hr
Experimental: Here, the effects of PB 1046 (Vasomera™) when given as a single-dose SQ bolus to conscious spontaneously hypertensive rats (SHR) was tested.
SHR rats (351±4 g, n=8) were instrumented for telemetric blood pressure and ECG monitoring. Via a Latin-Square design, the effects of Vasomera (1, 3, and 9 mg/kg SQ) as well as of vehicle (VEH, SQ) were evaluated. Finally, Vasomera™ (9 mg/kg SQ) was assayed during concomitant β-adrenergic receptor blockade (BB, atenolol 20 mg/kg/day PO). Changes in mean arterial pressure (MAP) and heart rate (HR) were measured.

[2] = target: T1, human Vasoactive Intestinal Peptide Receptor 2 (VPAC2) (Homo sapiens, UniProt P41587); test: cAMP cell-based bioassay, CHO cells expressing VPAC2; details: for in vitro activity for VPAC2 receptor compared with native VIP: cAMP, CHO cells expressing VPAC2, 30 minute incubation, FIG. 6, PB1047 DPP-IV treated
T1 construct: expressed in transfected cells; host or cells: Chinese Hamster Ovary (CHO) cells
T1 sequence (P41587 24-438): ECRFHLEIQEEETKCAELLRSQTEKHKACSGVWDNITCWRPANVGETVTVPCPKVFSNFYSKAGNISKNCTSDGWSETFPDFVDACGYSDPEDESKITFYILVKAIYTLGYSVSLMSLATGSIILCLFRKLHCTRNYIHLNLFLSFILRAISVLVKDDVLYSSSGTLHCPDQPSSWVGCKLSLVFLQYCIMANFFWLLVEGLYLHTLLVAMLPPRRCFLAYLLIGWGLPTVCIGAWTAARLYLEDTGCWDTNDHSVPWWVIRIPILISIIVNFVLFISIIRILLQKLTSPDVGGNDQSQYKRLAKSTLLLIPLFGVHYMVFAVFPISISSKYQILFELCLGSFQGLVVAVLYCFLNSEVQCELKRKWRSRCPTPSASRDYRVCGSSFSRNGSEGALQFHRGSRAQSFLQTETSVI
Experimental: (§1) Since the amount of cAMP accumulation in cells after receptor-mediated ligand binding and activation is directly proportional to the amount of intact peptide or fusion protein present, the assay can be used to determine bioactivity and relative potency.
In this example, the activity of VIP-ELP fusion proteins PB1046 and PB1047 was tested. […] Both constructs have ELP(1-120) at their C-terminus. […] After 30 minute incubations of various concentrations of the fusion proteins with the cell, the cells were lysed and the amount of cAMP produced was measured using a commercial kit. PB1047 was DPP-IV treated prior to the addition to the cells.
FIG. 11 illustrates the activity of PB1120 for the VPAC2 receptor. […] However, in contrast to the results seen with VPAC1, PB1046 was equipotent for VPAC2 as compared to the native peptide.

[3] = system: conscious spontaneously hypertensive rats (SHR); test: Telemetric blood pressure and heart rate in conscious SHR pretreated with anti-hypertensives (Example 8); format: in vivo, rat; details: 9 mg/kg SQ
Experimental: The hemodynamic effects of Vasomera™ when given as a single-dose SQ bolus to conscious spontaneously hypertensive rats (SHR) pretreated with three common anti-hypertensives were tested.
SHR rats (351±4 g, n=8) were instrumented for telemetric BP and ECG monitoring. First, both Vasomera™ (9 mg [177 nmol]/kg, SQ) and placebo (VEH) were assayed in untreated animals. Then, the effects of Vasomera™ were tested during concomitant oral β-adrenergic receptor blockade (+BB, atenolol 20 mg/kg/day), calcium-channel blockade (+CCB, amlodipine 5 mg/kg/day) and ACE-inhibition (+ACE, ramipril 1 mg/kg/day). Mean arterial pressure (MAP) and heart rate (HR) were measured/averaged over 24 hours both pre- and post-dosing.

[4] = target: T2, human Vasoactive Intestinal Peptide Receptor 1 (VPAC1) (Homo sapiens, UniProt P32241); test: cAMP cell-based bioassay, CHO cells expressing VPAC1; details: for in vitro activity for VPAC1 receptor compared with native VIP: cAMP, CHO cells expressing VPAC1, 30 minute incubation, FIG. 7, PB1047 DPP-IV treated
T2 construct: expressed in transfected cells; host or cells: Chinese Hamster Ovary (CHO) cells
T2 sequence (P32241 31-457): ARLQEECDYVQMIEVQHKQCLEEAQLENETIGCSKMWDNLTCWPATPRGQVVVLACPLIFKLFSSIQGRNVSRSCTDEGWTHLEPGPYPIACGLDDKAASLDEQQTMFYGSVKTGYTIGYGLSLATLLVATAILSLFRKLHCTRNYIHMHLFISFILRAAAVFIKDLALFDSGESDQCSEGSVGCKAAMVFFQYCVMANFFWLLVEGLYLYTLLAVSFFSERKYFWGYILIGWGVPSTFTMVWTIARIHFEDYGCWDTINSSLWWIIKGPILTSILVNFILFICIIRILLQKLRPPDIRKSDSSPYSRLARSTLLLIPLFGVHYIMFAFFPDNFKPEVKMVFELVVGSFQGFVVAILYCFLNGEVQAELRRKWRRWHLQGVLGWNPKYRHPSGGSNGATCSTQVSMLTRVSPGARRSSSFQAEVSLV
Experimental: as §1
After 30 minute incubations of various concentrations of the fusion proteins with CHO cells, cells were lysed and the amount of cAMP produced was measured using a commercial kit. PB1047 was DPP-IV treated prior to the addition to the cells.
The activity of the PB1120 fusion peptide was tested in vitro.

[5] = system: Spontaneously hypertensive rats; test: Blood pressure effect of PB1047 in spontaneously hypertensive rats; format: in vivo, rat; details: 10 mg/kg subcutaneous, vs buffer control, FIG. 8
Experimental: The activity of the modified VIP-ELP fusion protein PB1047 was also tested in vivo. Specifically, effects of VIP-ELP fusion protein on blood pressure were tested. Spontaneously hypertensive rats were treated subcutaneous with PB1047 (10 mg/kg) or buffer control and their blood pressures were measured at several points after administration of the fusion protein. Five animals were used for each group and the graphs show the average and the standard deviation.

[6] = under β-adrenergic receptor blockade (atenolol 20 mg/kg/day)
[7] = untreated rats, averaged over 24 hours

B1: PB1046: VIP-ELP fusion protein: VIP with Met at the N-terminus and ELP1-120 fused at the C-terminus (SEQ ID NO: 14) (protein)
chain: MHSDAVFTDNYTRLRKQMAVKKYLNSILNVPGVGVPGVGVPGGGVPGAGVPGVGVPGVGVPGVGVPGGGVPGAGVPGGGVPGVGVPGVGVPGGGVPGAGVPGVGVPGVGVPGVGVPGGGVPGAGVPGGGVPGVGVPGVGVPGGGVPGAGVPGVGVPGVGVPGVGVPGGGVPGAGVPGGGVPGVGVPGVGVPGGGVPGAGVPGVGVPGVGVPGVGVPGGGVPGAGVPGGGVPGVGVPGVGVPGGGVPGAGVPGVGVPGVGVPGVGVPGGGVPGAGVPGGGVPGVGVPGVGVPGGGVPGAGVPGVGVPGVGVPGVGVPGGGVPGAGVPGGGVPGVGVPGVGVPGGGVPGAGVPGVGVPGVGVPGVGVPGGGVPGAGVPGGGVPGVGVPGVGVPGGGVPGAGVPGVGVPGVGVPGVGVPGGGVPGAGVPGGGVPGVGVPGVGVPGGGVPGAGVPGVGVPGVGVPGVGVPGGGVPGAGVPGGGVPGVGVPGVGVPGGGVPGAGVPGVGVPGVGVPGVGVPGGGVPGAGVPGGGVPGVGVPGVGVPGGGVPGAGVPGVGVPGVGVPGVGVPGGGVPGAGVPGGGVPGVGVPGVGVPGGGVPGAGVPGVGVPGVGVPGVGVPGGGVPGAGVPGGGVPGWP
modifications: M-VIP ELP1-120
**Q.** B1 was tested. Which “lowering of MAP vs VEH” value ([1]; 9 mg/kg (177 nmol/kg) SQ, +6 hr) did it give?
**A.** 16±3%

**Q.** And the heart rate ([1]; 9 mg/kg SQ with β-adrenergic receptor blockade (atenolol 20 mg/kg/day PO))?
**A.** 308±3 bpm

**Q.** And the MAP ([1]; 9 mg/kg SQ with β-adrenergic receptor blockade (atenolol 20 mg/kg/day PO), +6 hr)?
**A.** 131±3 mmHg

**Q.** And the heart rate ([1]; 9 mg/kg SQ)?
**A.** 370±15 bpm

**Q.** And the MAP ([1]; 9 mg/kg SQ, +6 hr)?
**A.** 154±5 mmHg

**Q.** And the “duration of dose-dependent decreases in blood pressure post-dosing” value ([1]; 1, 3, 9 mg/kg SQ, FIG. 14A)?
**A.** up to 12 hours

**Q.** What about the adverse clinical effects ([1]; SHR, 1-9 mg/kg SQ, with or without atenolol) of the same molecule?
**A.** No adverse clinical effects were noted

**Q.** What about the “potency for VPAC2 as compared to the native peptide” value ([2]; FIG. 11) of the same molecule?
**A.** equipotent

**Q.** And the “selectivity for VPAC2 receptor over VPAC1 receptor” value ([2]; cAMP assays, FIG. 6 and 7)?
**A.** selectively activates VPAC2 receptor over VPAC1 receptor

**Q.** What about the “in vitro activity for VPAC2 receptor compared with native VIP” value [2] of the same molecule?
**A.** somewhat more active than native VIP protein

**Q.** And the “duration of decreases in blood pressure post-dosing” value ([3]; FIG. 15A)?
**A.** up to 12 hours

**Q.** What about the “change in MAP” value ([3]; rats pre-treated with amlodipine 5 mg/kg/day oral) of the same molecule?
**A.** −13±2%

**Q.** And the “change in MAP” value ([3]; rats pre-treated with atenolol 20 mg/kg/day oral)?
**A.** −14±1%

**Q.** What about the “change in MAP” value ([3]; rats pre-treated with ramipril 1 mg/kg/day oral) of the same molecule?
**A.** −9±2%

**Q.** And the “change in heart rate” value [3, 6]?
**A.** +6±1%

**Q.** And the heart rate post-dosing [3, 6]?
**A.** 294±2 bpm

**Q.** What about the MAP post-dosing [3, 7] of the same molecule?
**A.** 171±5 mmHg

**Q.** What about the “change in heart rate” value [3, 7] of the same molecule?
**A.** +8±1%

**Q.** And the heart rate post-dosing [3, 7]?
**A.** 384±8 bpm

**Q.** What about the “lowering of MAP, post- vs pre-dosing” value [3, 7] of the same molecule?
**A.** 9±1%

**Q.** What about the chronotropy under co-treatment ([3]; with amlodipine 5 mg/kg/day) of the same molecule?
**A.** unaffected

**Q.** What about the chronotropy under co-treatment ([3]; with ramipril 1 mg/kg/day) of the same molecule?
**A.** unaffected

**Q.** And the adverse clinical effects ([3]; SHR, with or without anti-hypertensives)?
**A.** no adverse clinical effects were noted

**Q.** And the “fold less active than the native VIP peptide on the VPAC1 receptor” value ([4]; FIG. 10)?
**A.** approximately 11 fold

**Q.** And the “in vitro activity for VPAC1 receptor compared with native VIP” value [4]?
**A.** much less active than native VIP protein

B2: PB1047: VIP-ELP fusion protein with tripeptide MAA at the N-terminus (Met removed to leave AA), ELP1-120 at C-terminus (SEQ ID NO: 15) (protein)
chain: MAAHSDAVFTDNYTRLRKQMAVKKYLNSILNVPGVGVPGVGVPGGGVPGAGVPGVGVPGVGVPGVGVPGGGVPGAGVPGGGVPGVGVPGVGVPGGGVPGAGVPGVGVPGVGVPGVGVPGGGVPGAGVPGGGVPGVGVPGVGVPGGGVPGAGVPGVGVPGVGVPGVGVPGGGVPGAGVPGGGVPGVGVPGVGVPGGGVPGAGVPGVGVPGVGVPGVGVPGGGVPGAGVPGGGVPGVGVPGVGVPGGGVPGAGVPGVGVPGVGVPGVGVPGGGVPGAGVPGGGVPGVGVPGVGVPGGGVPGAGVPGVGVPGVGVPGVGVPGGGVPGAGVPGGGVPGVGVPGVGVPGGGVPGAGVPGVGVPGVGVPGVGVPGGGVPGAGVPGGGVPGVGVPGVGVPGGGVPGAGVPGVGVPGVGVPGVGVPGGGVPGAGVPGGGVPGVGVPGVGVPGGGVPGAGVPGVGVPGVGVPGVGVPGGGVPGAGVPGGGVPGVGVPGVGVPGGGVPGAGVPGVGVPGVGVPGVGVPGGGVPGAGVPGGGVPGVGVPGVGVPGGGVPGAGVPGVGVPGVGVPGVGVPGGGVPGAGVPGGGVPGVGVPGVGVPGGGVPGAGVPGVGVPGVGVPGVGVPGGGVPGAGVPGGGVPGWP
modifications: MAA-VIP ELP1-120
**Q.** How did the “in vitro activity for VPAC2 receptor compared with native VIP” value [2] turn out when B2 was run?
**A.** less active

**Q.** And the diastolic blood pressure [5]?
**A.** significantly reduced

**Q.** What about the systolic blood pressure [5] of the same molecule?
**A.** significantly reduced

**Q.** What about the “in vitro activity for VPAC1 receptor compared with native VIP” value [4] of the same molecule?
**A.** about the same as it was in the test for VPAC2 receptor
